The assay concerns the target T1, neuropilin-1 (NRP1) on HEK293 cells overexpressing NRP1 (UniProt O14786 22-923, limits assumed).
T1 construct: whole, on cells
Nature of the assay: flow cytometry, HEK293-NRP1 vs HEK293.

B1: NRP1-289 (antibody, IgG2, V domains shown)
VH: EVQLLESGGGLVQPGGSLRLSCAASGFTISSSAMGWVRQAPGKGLEWVSALSGSGGSKYYADSVKGRFTISRDNSKNTLYLQMNSLRAEDTAVYYCAKEALPRASRRAAAVRYFHHWGQGTLVTVSS
VL: DIQMTQSPSSLSASVGDRVTITCRASQNIVRYLNWYQQKPGKAPKLLIYTASNLQTGVPSRFSGSGSGTDFTLTISSLQPEDFATYYCQESYSRTFGGGTKVEIK
Regarding B1, the “100 nM FACS (MFI Ratio)” value was determined as 0.9.

B2: NRP1-284 (antibody, IgG2, V domains shown)
VH: EVQLLESGGGLVQPGGSLRLSCAASGFTFSSSAMNWVRQAPGKGLEWVSAITSSGGSTYYADSVKGRFTISRDNSKNTLYLQMNSLRAEDTAVYYCARVTKMSPRSVGRRLRKGDGLDVWGQGTLVTVSS
VL: DIQMTQSPSSLSASVGDRVTITCRASQSISRSLSWYQQKPGKAPKLLIYSASRLQSGVPSRFSGSGSGTDFTLTISSLQPEDFATYYCLQSYSSPRTFGGGTKVEIK
Regarding B2, the “100 nM FACS (MFI Ratio)” value came out at 1.

B3: NRP1-258 (antibody, IgG2, V domains shown)
VH: EVQLLESGGGLVQPGGSLRLSCAASGFRFGNYAMSWVRQAPGKGLEWVSAISGSAGRTYYADSVKGRFTISRDNSKNTLYLQMNSLRAEDTAVYYCARAPFQSRIGLAGTRRHKRDNFDQWGQGTLVTVSS
VL: DIQMTQSPSSLSASVGDRVTITCRASQSIDNFLNWYQQKPGKAPKLLIYGASKLQRGVPSRFSGSGSGTDFTLTISSLQPEDFATYYCQQSYSSPPVTFGGGTKVEIK
For B3, the “100 nM FACS (MFI Ratio)” value came to 0.7.

B4: NRP1-281 (antibody, IgG2, V domains shown)
VH: EVQLLESGGGLVQPGGSLRLSCAASGFTFRSLAVSWVRQAPGKGLEWVSTITGSGGATYYADSVKGRFTISRDNSKNTLYLQMNSLRAEDTAVYYCVRALAGRRDHWGQGTLVTVSS
VL: DIQMTQSPSSLSASVGDRVTITCRASQSIRTSLNWYQQKPGKAPKLLIYAASALHSGVPSRFSGSGSGTDFTLTISSLQPEDFATYYCQQSYSTLPITFGGGTKVEIK
Turning to B4, the “100 nM FACS (MFI Ratio)” value stood at 1.4.

B5: NRP1-254 (antibody, IgG2, V domains shown)
VH: EVQLLESGGGLVQPGGSLRLSCAASGFTFNTHAMSWVRQAPGKGLEWVSTISGSGGYTYYADSVKGRFTISRDNSKNTLYLQMNSLRAEDTAVYYCAKDLAAAGDYWGQGTLVTVSS
VL: DIQMTQSPSSLSASVGDRVTITCRASQRISTYLNWYQQKPGKAPKLLIYAASHLQSGVPSRFSGSGSGTDFTLTISSLQPEDFATYYCQQSHTTPLTFGGGTKVEIK
On to B5, for which the “100 nM FACS (MFI Ratio)” value amounted to 2.8.

B6: NRP1-268 (antibody, IgG2, V domains shown)
VH: EVQLLESGGGLVQPGGSLRLSCAASGFIFSTYALSWVRQAPGKGLEWVSGINGSGASTYYADSVKGRFTISRDNSKNTLYLQMNSLRAEDTAVYYCAREGQGWTSLLPRPSQRRPQRRPPYYGLDVWGQGTLVTVSS
VL: DIQMTQSPSSLSASVGDRVTITCRGSQSITRFLNWYQQKPGKAPKLLIYATSRLQSGVPSRFSGSGSGTDFTLTISSLQPEDFATYYCQQSHSFPRTFGGGTKVEIK
Take B6: the “100 nM FACS (MFI Ratio)” value stood at 2.1.

B7: NRP1-287 (antibody, IgG2, V domains shown)
VH: EVQLLESGGGLVQPGGSLRLYCAASGFTFGSYGMSWVRQAPGKGLEWVSSISGSGGSTYYTDSVKGRFTISRDNSKNTLYLQMNSLRAEDTAVYYCARDLARGTMPRGVIIPHNWFDPWGQGTLVTVSS
VL: DIQMTQSPSSLSASVGDRVTITCRASQTISNYVNWYQQKPGKAPKLLIYAASSLHAGVPSRFSGSGSGTDFTLTISSLQPEDFATYYCQQGYSTPLTFGGGTKVEIK
Take B7: the “100 nM FACS (MFI Ratio)” value stood at 0.4.

B8: NRP1-274 (antibody, IgG2, V domains shown)
VH: EVQLLESGGGLVQPGGSLRLSCAASGFTFSKYAMNWVRQAPGKGLEWVSTISGSGGSTSYADSVKGRFTISRDNSKNTLYLQMNSLRAEDTAVYYCARGQDIKRNVMRRGGRLNWFDPWGQGTLVTVSS
VL: DIQMTQSPSSLSASVGDRVTITCRASQSIGSNLNWYQQKPGKAPKLLIYGATNLQSGVPSRFSGSGSGTDFTLTISSLQPEDFATYYCQQSYRTPLTFGGGTKVEIK
As for B8, the “100 nM FACS (MFI Ratio)” value stood at 1.

B9: NRP1-264 (antibody, IgG2, V domains shown)
VH: EVQLLESGGGLVQPGGSLRLSCAASGFTFRGYAMSWVRQAPGKGLEWVSTISGSGGVTYYADSVKGRFTISRDNSKNTLYLQMNSLRAEDTAVYYCARVRVDARPRGMMSRYYGMDVWGQGTLVTVSS
VL: DIQMTQSPSSLSASVGDRVTITCRASQSISNRLNWYQQKPGKAPKLLIYGASSLQPGVPSRFSGSGSGTDFTLTISSLQPEDFATYYCQQSFNTPRTFGGGTKVEIK
For the molecule B9, the “100 nM FACS (MFI Ratio)” value is 3.

B10: NRP1-279 (antibody, IgG2, V domains shown)
VH: EVQLLESGGGLVQPGGSLRLSCAASGFTFSRHAMSWVRQAPGKGLEWVSGISGSGGRTHYADSVKGRFTISRDNSKNTLYLQMNSLRAEDTAVYYCARDPSTIAARRANHYYMDVWGQGTLVTVSS
VL: DIQMTQSPSSLSASVGDRVTITCRTSQSISNFLNWYQQKPGKAPKLLIYRASTLQTGVPSRFSGSGSGTDFTLTISSLQPEDFATYYCQQSYKTPRTFGGGTKVEIK
With B10, the “100 nM FACS (MFI Ratio)” value was determined as 0.7.

B11: NRP1-278 (antibody, IgG2, V domains shown)
VH: EVQLLESGGGLVQPGGSLRLSCAASGFTFRRYAMSWVRQAPGKGLEWVSAISGSGDRTYYADSVKGRFTISRDNSKNTLYLQMNSLRAEDTAVYYCARDRGLRYFDWSFDYWGQGTLVTVSS
VL: DIQMTQSPSSLSASVGDRVTITCRTSQSISSYLNWYQQKPGKAPKLLIYAAAGLRGGVPSRFSGSGSGTDFTLTISSLQPEDFATYYCQQSFTTPWTFGGGTKVEIK
B11: the “100 nM FACS (MFI Ratio)” value worked out at 3.

B12: NRP1-288 (antibody, IgG2, V domains shown)
VH: EVQLLESGGGLVQPGGSLRLSCAASGFTFSTFAMSWVRQAPGKGLEWVSTISGSGTSTYYADSVKGRFTISRDNSKNTLYLQMNSLRAEDTAVYYCARFPGDRGYYHYYMDVWGQGTLVTVSS
VL: DIQMTQSPSSLSASVGDRVTITCRASQSIARYLNWYQQKPGKAPKLLIYRASRLQSGVPSRFSGSGSGTDFALTISSLQPEDFATYYCQQSFSPPFTFGGGTKVEIK
Consider B12, for which the “100 nM FACS (MFI Ratio)” value stood at 3.9.

B13: NRP1-290 (antibody, IgG2, V domains shown)
VH: EVQLLESGGGLVQPGGSLRLSCAASGFTFRNYAMTWVRQAPGKGLEWVSGISGSGGSTYYSDSVKGRFTISRDNSKNTLYLQMNSLRAEDTAVYYCARGRRGMPTPDTVRKMSKSHLYFDSWGQGTLVTVSS
VL: DIQMTQSPSSLSASVGDRVTITCRTSQSISRYLNWYQQKPGKAPKLLIYGASTLQSGVPSRFSGSGSGTDFTLTISSLQPEDFATYYCQQNYIIPWTFGGGTKVEIK
As for B13, the “100 nM FACS (MFI Ratio)” value came out at 0.6.

B14: NRP1-276 (antibody, IgG2, V domains shown)
VH: EVQLLESGGGLVQPGGSLRLSCAASGFPFTSYAMSWVRQAPGKGLEWVSAISSSGTGTYYADSVKGRFTISRDNSKNTLYLQMNSLRAEDTAVYYCARLKRGGTNLVRKATRYQFYGMDAWGQGTLVTVSS
VL: DIQMTQSPSSLSASVGDRVTITCRASQSVSRYLNWYQQKPGKAPKLLIYGASTLQAGVPSRFSGSGSGTDFTLTISSLQPEDFATYYCQQSYTTPLTFGGGTKVEIK
For B14, the “100 nM FACS (MFI Ratio)” value turned out to be 2.6.

B15: NRP1-257 (antibody, IgG2, V domains shown)
VH: EVQLLESGGGLVQPGGSLRLSCAASGFTFSRYGMSWVRQAPGKGLEWVSTISGSGGSTSYADSVKGRFTISRDNSKNTLYLQMNSLRAEDTAVYYCARASHVDIPRRAPKRRHSFDSWGQGTLVTVSS
VL: DIQMTQSPSSLSASVGDRVTITCRASQTISNYVNWYQQKPGKAPKLLIYAASSLHAGVPSRFSGSGSGTDFTLTISSLQPEDFATYYCQQGYSTPLTFGGGTKVEIK
As for B15, the “100 nM FACS (MFI Ratio)” value is 0.9.

B16: NRP1-286 (antibody, IgG2, V domains shown)
VH: EVQLLESGGGLVQPGGSLRLSCAASGFTLSAYAMNWVRQAPGKGLEWVSSISGSGGATYYADSVKGRFTISRDNSKNTLYLQMNSLRAEDTAVYYCARVMKTTRRIVGRRLRKGDGLDVWGQGTLVTVSS
VL: DIQMTQSPSSLSASVGDRVTITCRASQSIRNNLSWYQQKPGKAPKLLIYAASSLQTGVPSRFSGSGSGTDFTLTISSLQPEDFATYYCQQSFTIPRTFGGGTKVEIK
As for B16, the “100 nM FACS (MFI Ratio)” value is 1.4.

B17: NRP1-265 (antibody, IgG2, V domains shown)
VH: EVQLLESGGGLVQPGGSLRLSCAASGFTFGKYAMTWVRQAPGKGLEWVSGISGSGGRTNYADSVKGRFTISRDNSKNTLYLQMNSLRAEDTAVYYCARDFVAWRGGFRRYYSYNGMDVWGQGTLVTVSS
VL: DIQMTQSPSSLSASVGDRVTITCRASQYVSTYLNWYQQKPGKAPKLLIYGTSRLQSGVPSRFSGSGSGTDFTLTISSLQPEDFATYYCQQSYSTPKTFGGGTKVEIK
As to B17, the “100 nM FACS (MFI Ratio)” value worked out at 2.5.

B18: NRP1-285 (antibody, IgG2, V domains shown)
VH: EVQLLESGGGLVQPGGSLRLSCAASGFTLSNYGMSWVRQAPGKGLEWVSTISGSGSGTYYADSVKGRFTISRDNSKNTLYLQMNSLRAEDTAVYYCARAGKAFDYWGQGTLVTVSS
VL: DIQMTQSPSSLSASVGDRVTITCRASQSVSSYLSWYQQKPGKAPKLLIYAATSLESGVPSRFSGSGSGTDFTLTISSLQPEDFATYYCQQSYRTPLTFGGGTKVEIK
For the molecule B18, the “100 nM FACS (MFI Ratio)” value stood at 1.3.

B19: NRP1-299 (antibody, IgG2, V domains shown)
VH: EVQLLESGGGLVQPGGSLRLSCAASGFTFRRYAMSWVRQAPGKGLEWVATISGSGGSTYYADSVKGRFTISRDNSKNTLYLQMNSLRAEDTAVYYCARGGNGSNRRPSLLPRNRAAAIGFESAFDVWGQGTLVTVSS
VL: DIQMTQSPSSLSASVGDRVTITCRASQTIANYLNWYQQKPGKAPKLLIYRASRLQSGVPSRFSGSGSGTDFTLTISSLQPEDFATYYCQQSYNTPYTFGGGTKVEIK
For the molecule B19, the “100 nM FACS (MFI Ratio)” value is 2.5.

B20: NRP1-270 (antibody, IgG2, V domains shown)
VH: EVQLLESGGGLVQPGGSLRLSCAASGFTFSIYAMGWVRQAPGKGLEWVSSISGRGGSIYYADSVKGRFTISRDNSKNTLYLQMNSLRAEDTAVYYCARSAGTFDYWGQGTLVTVSS
VL: DIQMTQSPSSLSASVGDRVTITCRASQSIRSHLNWYQQKPGKAPKLLIYAASSVESGVPSRFSGSGSGTDFTLTISSLQPEDFATYYCQQSYSAPLTFGGGTKVEIK
Take B20: the “100 nM FACS (MFI Ratio)” value is 3.

B21: NRP1-292 (antibody, IgG2, V domains shown)
VH: EVQLLESGGGLVQPGGSLRLSCAASGFTLSSYAMAWVRQAPGKGLEWVSAIRGSGGTTYYADSVKGRFTISRDNSKNTLYLQMNSLRAEDTAVYYCARRGRAPRMVRGVVNRRPYYFDYWGQGTLVTVSS
VL: DIQMTQSPSSLSASVGDRVTITCRTSQSIATYLNWYQQKPGKAPKLLIYGASRSQSGVPSRFSGSGSGTDFTLTISSLQPEDFATYYCQQSYFTPPTFGGGTKVEIK
Take B21: the “100 nM FACS (MFI Ratio)” value came to 0.4.

The values are drawn from patent publication US20230265198A1 (TWIST BIOSCIENCE, published 2023).
